Article PMC2783222 (2010)

Experiments:
[1] = biological target: T1, ADAM11 (Homo sapiens, UniProt O75078); assay: LGI1-AP fusion binding to transfected COS-7 cells
T1 chain: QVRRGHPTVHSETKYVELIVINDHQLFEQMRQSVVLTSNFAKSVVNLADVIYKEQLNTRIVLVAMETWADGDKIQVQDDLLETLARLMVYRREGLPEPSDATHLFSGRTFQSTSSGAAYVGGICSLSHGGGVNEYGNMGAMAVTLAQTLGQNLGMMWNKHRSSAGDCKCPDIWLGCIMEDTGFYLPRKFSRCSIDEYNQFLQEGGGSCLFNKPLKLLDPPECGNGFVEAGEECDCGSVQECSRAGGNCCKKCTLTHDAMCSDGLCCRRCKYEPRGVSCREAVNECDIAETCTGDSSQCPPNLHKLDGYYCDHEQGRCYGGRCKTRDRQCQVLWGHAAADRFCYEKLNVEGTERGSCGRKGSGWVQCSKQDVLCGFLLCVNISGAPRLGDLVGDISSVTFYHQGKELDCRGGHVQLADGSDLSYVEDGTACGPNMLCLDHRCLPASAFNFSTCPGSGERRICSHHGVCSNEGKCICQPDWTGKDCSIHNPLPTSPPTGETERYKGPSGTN

[2] = biological target: T2, ADAM22 (Homo sapiens, UniProt Q9P0K1); assay: LGI1-AP fusion binding to transfected COS-7 cells
T2 chain: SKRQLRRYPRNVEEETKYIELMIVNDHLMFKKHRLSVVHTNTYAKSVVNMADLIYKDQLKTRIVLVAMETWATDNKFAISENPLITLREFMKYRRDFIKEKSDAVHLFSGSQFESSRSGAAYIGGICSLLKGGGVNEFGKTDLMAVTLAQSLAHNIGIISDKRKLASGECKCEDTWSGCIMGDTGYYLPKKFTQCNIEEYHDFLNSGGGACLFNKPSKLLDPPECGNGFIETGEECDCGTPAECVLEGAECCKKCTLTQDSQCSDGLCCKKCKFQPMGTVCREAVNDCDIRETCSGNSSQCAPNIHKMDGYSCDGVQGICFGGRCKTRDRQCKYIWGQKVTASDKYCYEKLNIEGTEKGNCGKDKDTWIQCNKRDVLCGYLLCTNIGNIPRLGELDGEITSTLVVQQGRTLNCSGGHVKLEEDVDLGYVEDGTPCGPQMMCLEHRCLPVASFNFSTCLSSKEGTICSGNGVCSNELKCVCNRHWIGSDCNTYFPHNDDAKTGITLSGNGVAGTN

[3] = biological target: T3, ADAM23 (Homo sapiens, UniProt O75077); assay: LGI1-AP fusion binding to transfected COS-7 cells
T3 chain: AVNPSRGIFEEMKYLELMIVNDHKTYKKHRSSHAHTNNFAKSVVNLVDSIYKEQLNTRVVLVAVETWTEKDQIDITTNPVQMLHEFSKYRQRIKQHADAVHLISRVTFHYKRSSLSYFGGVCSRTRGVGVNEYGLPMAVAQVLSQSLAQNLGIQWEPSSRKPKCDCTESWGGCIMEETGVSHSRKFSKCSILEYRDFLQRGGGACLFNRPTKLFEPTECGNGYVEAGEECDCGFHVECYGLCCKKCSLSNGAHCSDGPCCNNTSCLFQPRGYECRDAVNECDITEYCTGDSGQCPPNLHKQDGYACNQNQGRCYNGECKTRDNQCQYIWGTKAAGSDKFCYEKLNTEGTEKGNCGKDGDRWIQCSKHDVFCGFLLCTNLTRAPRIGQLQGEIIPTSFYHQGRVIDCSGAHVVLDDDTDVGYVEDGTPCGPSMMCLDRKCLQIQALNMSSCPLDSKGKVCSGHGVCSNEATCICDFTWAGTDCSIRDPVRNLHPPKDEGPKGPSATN

[4] = biological target: T3, ADAM23; assay: LGI1-AP fusion binding to transfected COS-7 cells, Scatchard

B1: LGI1 (protein)
chain: KKPAKPKCPAVCTCTKDNALCENARSIPRTVPPDVISLSFVRSGFTEISEGSFLFTPSLQLLLFTSNSFDVISDDAFIGLPHLEYLFIENNNIKSISRHTFRGLKSLIHLSLANNNLQTLPKDIFKGLDSLTNVDLRGNSFNCDCKLKWLVEWLGHTNATVEDIYCEGPPEYKKRKINSLSSKDFDCIITEFAKSQDLPYQSLSIDTFSYLNDEYVVIAQPFTGKCIFLEWDHVEKTFRNYDNITGTSTVVCKPIVIETQLYVIVAQLFGGSHIYKRDSFANKFIKIQDIEILKIRKPNDIETFKIENNWYFVVADSSKAGFTTIYKWNGNGFYSHQSLHAWYRDTDVEYLEIVRTPQTLRTPHLILSSSSQRPVIYQWNKATQLFTNQTDIPNMEDVYAVKHFSVKGDVYICLTRFIGDSKVMKWGGSSFQDIQRMPSRGSMVFQPLQINNYQYAILGSDYSFTQVYNWDAEKAKFVKFQELNVQAPRSFTHVSINKRNFLFASSFKGNTQIYKHVIVDLSA
[1]
  Kd: 15 nM
[2]
  Kd: 15 nM
[3]
  Kd: 15 nM
[4]
  Kd: 10 nM
